The results in this text go back to US20200239529A1.

In this test the target is CXCR4 (human) (UniProt P61073). The test can be described thus: cell-based or functional assay.
Chain of UniProt P61073 (P61073 whole entry): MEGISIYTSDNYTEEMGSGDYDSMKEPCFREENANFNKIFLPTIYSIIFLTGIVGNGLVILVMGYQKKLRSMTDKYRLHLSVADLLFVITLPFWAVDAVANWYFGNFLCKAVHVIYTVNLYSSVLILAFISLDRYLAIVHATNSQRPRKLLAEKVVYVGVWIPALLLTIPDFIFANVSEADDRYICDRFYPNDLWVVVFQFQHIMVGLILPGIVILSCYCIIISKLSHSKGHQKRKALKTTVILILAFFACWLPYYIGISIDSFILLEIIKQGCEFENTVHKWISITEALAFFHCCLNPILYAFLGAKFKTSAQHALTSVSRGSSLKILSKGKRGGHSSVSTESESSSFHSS

“T22-DITOX-H6 (from UniProt P00587 26-411)” gave an IC50 of killing cultured HeLa cells of 0.78 nM. Consider T22-PE24-H6, for which the IC50 of killing cultured HeLa cells stood at 0.99 nM.
